Source: publication PMC9400332

Settings: glycan lost

| Protein | localisation_or_trafficking | other: cell-cell fusion activity | other: cell-cell fusion activity, fold_change | other: proteolytic processing | expression_or_secretion |
| --- | --- | --- | --- | --- | --- |
| Cedar virus fusion protein F (CedV F): g2 (protein) parent chain: MSNKRTTVLIIISYTLFYLNNAAIVGFDFDKLNKIGVVQGRVLNYKIKGDPMTKDLVLKFIPNIVNITECVREPLSRYNETVRRLLLPIHNMLGLYLNNTNAKMTGLMIAGVIMGGIAIGIATAAQITAGFALYEAKKNTENIQKLTDSIMKTQDSIDKLTDSVGTSILILNKLQTYINNQLVPNLELLSCRQNKIEFDLMLTKYLVDLMTVIGPNINNPVNKDMTIQSLSLLFDGNYDIMMSELGYTPQDFLDLIESKSITGQIIYVDMENLYVVIRTYLPTLIEVPDAQIYEFNKITMSSNGGEYLSTIPNFILIRGNYMSNIDVATCYMTKASVICNQDYSLPMSQNLRSCYQGETEYCPVEAVIASHSPRFALTNGVIFANCINTICRCQDNGKTITQNINQFVSMIDNSTCNDVMVDKFTIKVGKYMGRKDINNINIQIGPQIIIDKVDLSNEINKMNQSLKDSIFYLREAKRILDSVNISLISPSVQLFLIIISVLSFIILLIIIVYLYCKSKHSYKYNKFIDDPDYYNDYKRERINGKASKSNNIYYVGD | increases | decreases | decreases | no change | – |
| Cedar virus fusion protein F (CedV F): g1 (protein) parent chain: MSNKRTTVLIIISYTLFYLNNAAIVGFDFDKLNKIGVVQGRVLNYKIKGDPMTKDLVLKFIPNIVNITECVREPLSRYNETVRRLLLPIHNMLGLYLNNTNAKMTGLMIAGVIMGGIAIGIATAAQITAGFALYEAKKNTENIQKLTDSIMKTQDSIDKLTDSVGTSILILNKLQTYINNQLVPNLELLSCRQNKIEFDLMLTKYLVDLMTVIGPNINNPVNKDMTIQSLSLLFDGNYDIMMSELGYTPQDFLDLIESKSITGQIIYVDMENLYVVIRTYLPTLIEVPDAQIYEFNKITMSSNGGEYLSTIPNFILIRGNYMSNIDVATCYMTKASVICNQDYSLPMSQNLRSCYQGETEYCPVEAVIASHSPRFALTNGVIFANCINTICRCQDNGKTITQNINQFVSMIDNSTCNDVMVDKFTIKVGKYMGRKDINNINIQIGPQIIIDKVDLSNEINKMNQSLKDSIFYLREAKRILDSVNISLISPSVQLFLIIISVLSFIILLIIIVYLYCKSKHSYKYNKFIDDPDYYNDYKRERINGKASKSNNIYYVGD | decreases | – | – | – | no change |
| Cedar virus fusion protein F (CedV F): g6 (protein) parent chain: MSNKRTTVLIIISYTLFYLNNAAIVGFDFDKLNKIGVVQGRVLNYKIKGDPMTKDLVLKFIPNIVNITECVREPLSRYNETVRRLLLPIHNMLGLYLNNTNAKMTGLMIAGVIMGGIAIGIATAAQITAGFALYEAKKNTENIQKLTDSIMKTQDSIDKLTDSVGTSILILNKLQTYINNQLVPNLELLSCRQNKIEFDLMLTKYLVDLMTVIGPNINNPVNKDMTIQSLSLLFDGNYDIMMSELGYTPQDFLDLIESKSITGQIIYVDMENLYVVIRTYLPTLIEVPDAQIYEFNKITMSSNGGEYLSTIPNFILIRGNYMSNIDVATCYMTKASVICNQDYSLPMSQNLRSCYQGETEYCPVEAVIASHSPRFALTNGVIFANCINTICRCQDNGKTITQNINQFVSMIDNSTCNDVMVDKFTIKVGKYMGRKDINNINIQIGPQIIIDKVDLSNEINKMNQSLKDSIFYLREAKRILDSVNISLISPSVQLFLIIISVLSFIILLIIIVYLYCKSKHSYKYNKFIDDPDYYNDYKRERINGKASKSNNIYYVGD | decreases | – | – | no change | – |
| Cedar virus fusion protein F (CedV F): g3 (protein) parent chain: MSNKRTTVLIIISYTLFYLNNAAIVGFDFDKLNKIGVVQGRVLNYKIKGDPMTKDLVLKFIPNIVNITECVREPLSRYNETVRRLLLPIHNMLGLYLNNTNAKMTGLMIAGVIMGGIAIGIATAAQITAGFALYEAKKNTENIQKLTDSIMKTQDSIDKLTDSVGTSILILNKLQTYINNQLVPNLELLSCRQNKIEFDLMLTKYLVDLMTVIGPNINNPVNKDMTIQSLSLLFDGNYDIMMSELGYTPQDFLDLIESKSITGQIIYVDMENLYVVIRTYLPTLIEVPDAQIYEFNKITMSSNGGEYLSTIPNFILIRGNYMSNIDVATCYMTKASVICNQDYSLPMSQNLRSCYQGETEYCPVEAVIASHSPRFALTNGVIFANCINTICRCQDNGKTITQNINQFVSMIDNSTCNDVMVDKFTIKVGKYMGRKDINNINIQIGPQIIIDKVDLSNEINKMNQSLKDSIFYLREAKRILDSVNISLISPSVQLFLIIISVLSFIILLIIIVYLYCKSKHSYKYNKFIDDPDYYNDYKRERINGKASKSNNIYYVGD | decreases | – | – | no change | – |
| Cedar virus fusion protein F (CedV F): g4 (protein) parent chain: MSNKRTTVLIIISYTLFYLNNAAIVGFDFDKLNKIGVVQGRVLNYKIKGDPMTKDLVLKFIPNIVNITECVREPLSRYNETVRRLLLPIHNMLGLYLNNTNAKMTGLMIAGVIMGGIAIGIATAAQITAGFALYEAKKNTENIQKLTDSIMKTQDSIDKLTDSVGTSILILNKLQTYINNQLVPNLELLSCRQNKIEFDLMLTKYLVDLMTVIGPNINNPVNKDMTIQSLSLLFDGNYDIMMSELGYTPQDFLDLIESKSITGQIIYVDMENLYVVIRTYLPTLIEVPDAQIYEFNKITMSSNGGEYLSTIPNFILIRGNYMSNIDVATCYMTKASVICNQDYSLPMSQNLRSCYQGETEYCPVEAVIASHSPRFALTNGVIFANCINTICRCQDNGKTITQNINQFVSMIDNSTCNDVMVDKFTIKVGKYMGRKDINNINIQIGPQIIIDKVDLSNEINKMNQSLKDSIFYLREAKRILDSVNISLISPSVQLFLIIISVLSFIILLIIIVYLYCKSKHSYKYNKFIDDPDYYNDYKRERINGKASKSNNIYYVGD | – | – | – | – | no change |
